Data as given in the supplement of paper PMC10567573.

B1: SMTNL2 (parent)
chain: AFTMAENLANCERLIEVEDMMVMG
B2: COX4I1 (parent)
chain: VAHVKHLSASQKALKEKEKASWSS

Variants of: B1
Assay: protein stability index of a GFP-peptide fusion (GPS, HEK-293T) (PSI 1-6); higher = more stable
Settings: c terminus: a fixed tail appended
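Note: lentivirally expressed fusions sorted by FACS into six bins by GFP to DsRed ratio, PSI derived from sequencing read proportions per bin multiplied by bin number.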

Row | Variant | protein stability index
1 | AFTMAENLANCERLIEVEDMMVMA [G24A] | 2.03
2 | AFTMAENLANCERLIEVEDMMVMP [G24P] | 2.07
3 | AFTMAENLANCERLIEVEDMMVMY [G24Y] | 1.27
4 | AFTMAENLANCERLIEVEDMMVMN [G24N] | 2.45
5 | AFTMAENLANCERLIEVEDMMVMI [G24I] | 1.64
6 | AFTMAENLANCERLIEVEDMMVMQ [G24Q] | 2.71
7 | AFTMAENLANCERLIEVEDMMVMV [G24V] | 1.03
8 | AFTMAENLANCERLIEVEDMMVMR [G24R] | 2.47
9 | AFTMAENLANCERLIEVEDMMVMT [G24T] | 1.68
10 | AFTMAENLANCERLIEVEDMMVME [G24E] | 2.93
11 | AFTMAENLANCERLIEVEDMMVMC [G24C] | 1.52
12 | AFTMAENLANCERLIEVEDMMVMF [G24F] | 2.22
13 | AFTMAENLANCERLIEVEDMMVMM [G24M] | 1.96
14 | AFTMAENLANCERLIEVEDMMVMK [G24K] | 2.31
15 | AFTMAENLANCERLIEVEDMMVMS [G24S] | 2
16 | AFTMAENLANCERLIEVEDMMVMD [G24D] | 2.33
17 | AFTMAENLANCERLIEVEDMMVML [G24L] | 1.74
18 | AFTMAENLANCERLIEVEDMMVMH [G24H] | 1.59
19 | AFTMAENLANCERLIEVEDMMVYG [M23Y] | 1.88
20 | AFTMAENLANCERLIEVEDMMVTG [M23T] | 1.8
21 | AFTMAENLANCERLIEVEDMMVQG [M23Q] | 3.21
22 | AFTMAENLANCERLIEVEDMMVSG [M23S] | 2.69
23 | AFTMAENLANCERLIEVEDMMVWG [M23W] | 2.1
24 | AFTMAENLANCERLIEVEDMMVRG [M23R] | 1.97
25 | AFTMAENLANCERLIEVEDMMVVG [M23V] | 2.38

Variants of: B2
Assay: as above
Settings: c terminus: a fixed tail appended

Row | Variant | protein stability index
26 | VAHVGHLSASQKALKEKEKASWSS [K5G] | 3.88
27 | VAHVYHLSASQKALKEKEKASWSS [K5Y] | 2.55
28 | VAHVHHLSASQKALKEKEKASWSS [K5H] | 2.93
29 | VAHVRHLSASQKALKEKEKASWSS [K5R] | 2.65
30 | VAHVWHLSASQKALKEKEKASWSS [K5W] | 2.65
31 | VAHVNHLSASQKALKEKEKASWSS [K5N] | 3.45
32 | VAHVMHLSASQKALKEKEKASWSS [K5M] | 2.78
33 | VAHVPHLSASQKALKEKEKASWSS [K5P] | 3.64
34 | VAHVSHLSASQKALKEKEKASWSS [K5S] | 3.72
35 | VAHVEHLSASQKALKEKEKASWSS [K5E] | 3.69
36 | VAHVTHLSASQKALKEKEKASWSS [K5T] | 3.66
37 | VAHVQHLSASQKALKEKEKASWSS [K5Q] | 3.12
38 | VAHVAHLSASQKALKEKEKASWSS [K5A] | 3.67
39 | VAHVIHLSASQKALKEKEKASWSS [K5I] | 2.4
40 | VAHVLHLSASQKALKEKEKASWSS [K5L] | 3.28
41 | VAHVCHLSASQKALKEKEKASWSS [K5C] | 2.61
42 | VAHVVHLSASQKALKEKEKASWSS [K5V] | 3.1
43 | VAHVFHLSASQKALKEKEKASWSS [K5F] | 2.45
44 | VAHVDHLSASQKALKEKEKASWSS [K5D] | 3.27
45 | VCHVKHLSASQKALKEKEKASWSS [A2C] | 3.44
46 | VKHVKHLSASQKALKEKEKASWSS [A2K] | 3.02
47 | VQHVKHLSASQKALKEKEKASWSS [A2Q] | 3.46
48 | VGHVKHLSASQKALKEKEKASWSS [A2G] | 3.29

Row | Variant | protein stability index
49 | VWHVKHLSASQKALKEKEKASWSS [A2W] | 2.92
50 | VDHVKHLSASQKALKEKEKASWSS [A2D] | 3.6
51 | VPHVKHLSASQKALKEKEKASWSS [A2P] | 3.77
52 | VHHVKHLSASQKALKEKEKASWSS [A2H] | 3.72
53 | VRHVKHLSASQKALKEKEKASWSS [A2R] | 2.77
54 | VLHVKHLSASQKALKEKEKASWSS [A2L] | 3.38
55 | VTHVKHLSASQKALKEKEKASWSS [A2T] | 3.86
56 | VFHVKHLSASQKALKEKEKASWSS [A2F] | 2.23
57 | VSHVKHLSASQKALKEKEKASWSS [A2S] | 3.25
58 | VMHVKHLSASQKALKEKEKASWSS [A2M] | 3.19
59 | VEHVKHLSASQKALKEKEKASWSS [A2E] | 3.77
60 | VVHVKHLSASQKALKEKEKASWSS [A2V] | 2.72
61 | VIHVKHLSASQKALKEKEKASWSS [A2I] | 2.29
62 | VNHVKHLSASQKALKEKEKASWSS [A2N] | 2.81
63 | VYHVKHLSASQKALKEKEKASWSS [A2Y] | 2.3
64 | VAHVKHLSCSQKALKEKEKASWSS [A9C] | 2.42
65 | VAHVKHLSGSQKALKEKEKASWSS [A9G] | 2.38
66 | VAHVKHLSISQKALKEKEKASWSS [A9I] | 3.35
67 | VAHVKHLSPSQKALKEKEKASWSS [A9P] | 3.19
68 | VAHVKHLSMSQKALKEKEKASWSS [A9M] | 3.03
69 | VAHVKHLSKSQKALKEKEKASWSS [A9K] | 3.07
70 | VAHVKHLSFSQKALKEKEKASWSS [A9F] | 3.55
71 | VAHVKHLSLSQKALKEKEKASWSS [A9L] | 3.23

Row | Variant | protein stability index
72 | VAHVKHLSNSQKALKEKEKASWSS [A9N] | 3.43
73 | VAHVKHLSHSQKALKEKEKASWSS [A9H] | 3.19
74 | VAHVKHLSESQKALKEKEKASWSS [A9E] | 4.11
75 | VAHVKHLSDSQKALKEKEKASWSS [A9D] | 3.87
76 | VAHVKHMSASQKALKEKEKASWSS [L7M] | 3.4
77 | VAHVKHSSASQKALKEKEKASWSS [L7S] | 3.6
78 | VAHVKHYSASQKALKEKEKASWSS [L7Y] | 3.36
79 | VAHVKHCSASQKALKEKEKASWSS [L7C] | 3.47
80 | VAHVKHVSASQKALKEKEKASWSS [L7V] | 3.68
81 | VAHVKHKSASQKALKEKEKASWSS [L7K] | 3.43
82 | VAHVKHHSASQKALKEKEKASWSS [L7H] | 3.72
83 | VAHVKHPSASQKALKEKEKASWSS [L7P] | 3.91
84 | VAHVKHASASQKALKEKEKASWSS [L7A] | 2.27
85 | VAHVKHGSASQKALKEKEKASWSS [L7G] | 3.99
86 | VAHVKHFSASQKALKEKEKASWSS [L7F] | 3.42
87 | VAHVKHRSASQKALKEKEKASWSS [L7R] | 2.99
88 | VAHVKHNSASQKALKEKEKASWSS [L7N] | 3.85
89 | VAHVKHISASQKALKEKEKASWSS [L7I] | 3.79
90 | VAHVKHTSASQKALKEKEKASWSS [L7T] | 3.54
91 | VAHVKHDSASQKALKEKEKASWSS [L7D] | 4.03
92 | VAHVKHWSASQKALKEKEKASWSS [L7W] | 2.84
93 | VAHVKHQSASQKALKEKEKASWSS [L7Q] | 3.36
94 | VAHVKHESASQKALKEKEKASWSS [L7E] | 4.3
